Measured values reported in doi:10.1101/2021.11.25.470006 (bioRxiv, 2021).

Experiments:
Experiment in all cases: cryo-EM structure
[1] = biological target: T1, Nse1 (S. cerevisiae, UniProt Q07913 1-336, BS3-crosslinked within the holo-complex)
T1 sequence: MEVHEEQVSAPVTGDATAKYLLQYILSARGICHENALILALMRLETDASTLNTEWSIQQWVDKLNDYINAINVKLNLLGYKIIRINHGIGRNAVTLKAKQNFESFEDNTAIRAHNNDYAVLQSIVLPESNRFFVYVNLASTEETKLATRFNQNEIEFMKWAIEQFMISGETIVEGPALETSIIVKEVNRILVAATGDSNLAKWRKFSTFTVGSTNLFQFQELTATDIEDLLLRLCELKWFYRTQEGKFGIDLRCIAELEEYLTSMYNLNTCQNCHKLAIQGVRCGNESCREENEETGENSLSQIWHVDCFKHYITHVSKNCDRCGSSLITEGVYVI

[2] = biological target: T2, Nse4 (HALO-tagged) (S. cerevisiae, UniProt P43124 1-402, BS3-crosslinked within the holo-complex)
T2 sequence: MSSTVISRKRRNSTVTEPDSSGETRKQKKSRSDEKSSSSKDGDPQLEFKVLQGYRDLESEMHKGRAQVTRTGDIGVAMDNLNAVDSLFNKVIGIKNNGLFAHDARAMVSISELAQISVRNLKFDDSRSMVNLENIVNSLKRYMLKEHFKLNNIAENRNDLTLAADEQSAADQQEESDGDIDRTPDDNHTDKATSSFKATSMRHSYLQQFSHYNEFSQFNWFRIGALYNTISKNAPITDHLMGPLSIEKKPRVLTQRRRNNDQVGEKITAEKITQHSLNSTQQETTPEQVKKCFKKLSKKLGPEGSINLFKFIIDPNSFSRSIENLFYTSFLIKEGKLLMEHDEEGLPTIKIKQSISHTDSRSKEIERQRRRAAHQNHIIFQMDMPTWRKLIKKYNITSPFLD

[3] = biological target: T3, Smc5 (Walker B mutant E1015Q) (S. cerevisiae, UniProt Q08204 1-1093, E1015Q, BS3-crosslinked within the holo-complex)
T3 sequence: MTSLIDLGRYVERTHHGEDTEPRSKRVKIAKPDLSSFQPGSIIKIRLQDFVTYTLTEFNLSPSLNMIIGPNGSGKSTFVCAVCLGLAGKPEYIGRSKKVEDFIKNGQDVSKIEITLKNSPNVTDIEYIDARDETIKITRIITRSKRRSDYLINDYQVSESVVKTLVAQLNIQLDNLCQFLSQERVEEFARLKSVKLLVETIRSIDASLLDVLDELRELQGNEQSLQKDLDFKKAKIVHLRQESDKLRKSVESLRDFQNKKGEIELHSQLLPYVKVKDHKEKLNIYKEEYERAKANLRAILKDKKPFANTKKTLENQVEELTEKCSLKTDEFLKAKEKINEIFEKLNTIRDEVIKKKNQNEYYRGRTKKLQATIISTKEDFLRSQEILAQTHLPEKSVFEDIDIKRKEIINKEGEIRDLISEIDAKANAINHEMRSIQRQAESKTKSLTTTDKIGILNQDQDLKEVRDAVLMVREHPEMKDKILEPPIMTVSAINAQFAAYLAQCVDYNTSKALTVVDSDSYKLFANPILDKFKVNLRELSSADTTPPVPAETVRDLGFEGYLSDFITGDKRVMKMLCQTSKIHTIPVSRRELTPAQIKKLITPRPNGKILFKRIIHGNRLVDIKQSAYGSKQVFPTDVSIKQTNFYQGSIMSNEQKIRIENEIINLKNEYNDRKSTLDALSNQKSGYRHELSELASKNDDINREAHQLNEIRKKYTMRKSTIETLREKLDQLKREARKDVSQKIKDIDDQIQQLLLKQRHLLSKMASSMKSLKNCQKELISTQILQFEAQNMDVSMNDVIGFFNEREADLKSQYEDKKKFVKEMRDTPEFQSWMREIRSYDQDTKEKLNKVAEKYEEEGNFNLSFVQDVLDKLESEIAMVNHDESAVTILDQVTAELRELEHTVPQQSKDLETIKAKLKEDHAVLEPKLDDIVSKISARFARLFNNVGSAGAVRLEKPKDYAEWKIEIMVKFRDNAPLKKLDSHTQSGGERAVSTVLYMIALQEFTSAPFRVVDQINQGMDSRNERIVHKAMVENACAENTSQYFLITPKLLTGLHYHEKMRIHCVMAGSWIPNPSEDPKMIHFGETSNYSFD

binding result [1]: binds | binding result [2]: binds | binding result [3]: binds
B1: Nse3 (natural protein, S. cerevisiae)
chain: MSSIDNDSDVDLTEDLAVAKIVKENPVARKMVRYILSRGESQNSIITRNKLQSVIHEAAREENIAKPSFSKMFMDINAILYNVYGFELQGLPSKNNMNAGGNGSNSNTNKSMPEPLGHRAQKFILLNNVPHSKNFDDFKILQSAHTYEELIVTGEYIGDDIASGTSNTLESKLSTDRDLVYKGVLSVILCIVFFSKNNILHQELIKFLETFGIPSDGSKIAILNITIEDLIKSLEKREYIVRLEEKSDTDGEVISYRIGRRTQAELGLESLEKLVQEIMGLEKEQTKSLHDDIIKSIGDSYSI
modifications: BS3-crosslinked within the holo-complex
